The target in test [1] is 인간 BDCA-2 (Blood dendritic cell antigen 2, CLEC4C) (human) (UniProt Q8WTT0). Put plainly: flow cytometry, double staining of human PBMC with anti-CD123 and anti-BDCA-2. For orientation: A flow cytometer gives signals particle by particle.
Test [2] has the same target. Put plainly: flow cytometry, double staining of human PBMC with anti-CD123 and 201A.
The target of test [3] is T1, 인간 BDCA-2 (Blood dendritic cell antigen 2, CLEC4C) (human, UniProt Q8WTT0 1-213).
T1 construct: whole, on cells; also called human BDCA-2
T1 sequence (looked up): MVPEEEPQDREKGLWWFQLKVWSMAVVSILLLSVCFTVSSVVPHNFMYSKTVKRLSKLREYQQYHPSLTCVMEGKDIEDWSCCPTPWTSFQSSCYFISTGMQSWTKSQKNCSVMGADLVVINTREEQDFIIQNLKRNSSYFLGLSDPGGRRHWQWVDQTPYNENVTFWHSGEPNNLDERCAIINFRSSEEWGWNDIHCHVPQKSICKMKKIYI
The test is described as follows: flow cytometry on 293 cells expressing human BDCA-2, anti-human IgG-APC secondary.

Consider “anti-BDCA-2 (AC144, Miltenyi) (antibody)”, for which, in test [1], the % CD123+ BDCA-2+ 세포 (donor-1 PBMC) was found to be 0.51% and the % CD123+ BDCA-2+ 세포 (donor-2 PBMC) was found to be 0.15%.

B1: 인간 BDCA-2에 결합하는 마우스 단일클론 항체 201A (antibody, mouse IgG2a, kappa, V domains shown)
VH: DVKLVESGGGLVKPGGSLNLSCAASGFTFSSYTMSWVRQNPEKRLEWVATISSGGSYTYYPDSVKGRFTISRDNAKNTLYLQMSSLKSEDTAMYYCTRDRGDYDYDEGYYFDYWGQGTTLTVSS
VL: NIVLTQSPASLAVSLGQRATISCRASASVDSYGNSFMHWYQQKPGQPPKLLIYLASNLESGVPARFSGSGSRTDFTLTIDPVEADDAATYYCQQNNEDPRTFGGGTKLEIKR
In test [2], B1 registered a % CD123+ BDCA-2+ 세포 (donor-1 PBMC) of 0.65% and a % CD123+ BDCA-2+ 세포 (donor-2 PBMC) of 0.16%.

B2: 201A 인간화 항체 201H (antibody, human IgG1, kappa, V domains shown)
VH: EVQLVESGGGLVKPGGSLRLSCAASGFTFSSYTMSWVRQAPGKGLEWVATISSGGSYTYYPDSVKGRFTISRDNAKNSLYLQMNSLRAEDTAVYYCTRDRGDYDYDEGYYFDYWGQGTLVTVSS
VL: DIVLTQSPASLAVSPGQRATITCRASASVDSYGNSFMHWYQQKPGQPPKLLIYLASNLESGVPARFSGSGSRTDFTLTINPVEANDTANYYCQQNNEDPRTFGGGTKVEIKR
notes: Humanised antibody made in Expi293 cells, purified on protein G; detected with anti-human IgG Fc
Regarding B2, the binding result in test [3] is on record as “binds”.

B3: 201A 키메라 항체 201C (antibody, human IgG1, kappa, V domains shown)
VH: DVKLVESGGGLVKPGGSLNLSCAASGFTFSSYTMSWVRQNPEKRLEWVATISSGGSYTYYPDSVKGRFTISRDNAKNTLYLQMSSLKSEDTAMYYCTRDRGDYDYDEGYYFDYWGQGTTLTVSS
VL: NIVLTQSPASLAVSLGQRATISCRASASVDSYGNSFMHWYQQKPGQPPKLLIYLASNLESGVPARFSGSGSRTDFTLTIDPVEADDAATYYCQQNNEDPRTFGGGTKLEIKR
notes: Chimeric antibody made in Expi293 cells, purified on protein G; detected with anti-human IgG Fc
Turning to B3, the binding result in test [3] is on record as “binds”.

Source of the values: patent publication KR20240007815A (dated 2024).
